The data set has as its target T1, CasEnd-7 (synthetic construct).
T1 chain: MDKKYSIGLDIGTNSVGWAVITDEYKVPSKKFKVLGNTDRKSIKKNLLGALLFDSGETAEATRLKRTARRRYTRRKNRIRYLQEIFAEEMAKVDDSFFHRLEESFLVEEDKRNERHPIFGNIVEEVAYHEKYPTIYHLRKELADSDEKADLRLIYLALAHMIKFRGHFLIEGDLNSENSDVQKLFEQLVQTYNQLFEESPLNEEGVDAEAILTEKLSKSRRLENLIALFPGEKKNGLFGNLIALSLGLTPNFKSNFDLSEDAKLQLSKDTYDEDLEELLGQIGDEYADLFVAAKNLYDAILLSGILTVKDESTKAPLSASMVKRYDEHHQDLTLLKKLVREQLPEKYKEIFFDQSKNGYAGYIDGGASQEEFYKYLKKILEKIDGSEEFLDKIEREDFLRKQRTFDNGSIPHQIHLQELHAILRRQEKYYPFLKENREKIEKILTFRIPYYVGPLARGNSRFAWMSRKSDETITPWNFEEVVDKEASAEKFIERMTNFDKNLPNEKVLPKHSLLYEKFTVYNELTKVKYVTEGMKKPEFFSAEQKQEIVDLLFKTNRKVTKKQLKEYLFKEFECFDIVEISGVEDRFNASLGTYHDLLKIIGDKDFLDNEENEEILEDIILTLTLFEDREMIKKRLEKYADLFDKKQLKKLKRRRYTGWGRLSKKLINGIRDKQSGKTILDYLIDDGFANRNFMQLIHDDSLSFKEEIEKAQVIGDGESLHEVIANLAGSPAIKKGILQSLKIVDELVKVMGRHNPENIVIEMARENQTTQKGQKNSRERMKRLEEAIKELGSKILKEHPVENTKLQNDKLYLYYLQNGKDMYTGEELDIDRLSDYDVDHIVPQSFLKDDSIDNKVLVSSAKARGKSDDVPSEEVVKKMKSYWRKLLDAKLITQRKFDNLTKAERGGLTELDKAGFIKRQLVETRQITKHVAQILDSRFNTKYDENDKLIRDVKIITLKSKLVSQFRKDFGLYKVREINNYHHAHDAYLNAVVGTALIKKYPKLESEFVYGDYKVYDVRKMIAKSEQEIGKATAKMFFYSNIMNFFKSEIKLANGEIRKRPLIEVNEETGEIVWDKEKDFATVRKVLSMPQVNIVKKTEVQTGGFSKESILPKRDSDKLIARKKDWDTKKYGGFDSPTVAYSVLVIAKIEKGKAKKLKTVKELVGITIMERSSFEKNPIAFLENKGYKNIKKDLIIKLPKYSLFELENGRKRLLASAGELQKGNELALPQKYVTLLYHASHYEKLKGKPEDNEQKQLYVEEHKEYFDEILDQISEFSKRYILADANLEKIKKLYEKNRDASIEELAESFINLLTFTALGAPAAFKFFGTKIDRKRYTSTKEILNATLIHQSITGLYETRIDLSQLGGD
The data set can be described thus: cell_activity; +++; HEK293T; PAM not stated. In a few lines:
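BFP-to-GFP conversion via reverse transcriptase fusion with each Cas endonuclease plus template RNA: 200 ng of each plasmid nucleofected into 250,000 BFP-expressing HEK293T cells (program DS-150). Percent GFP+ cells by flow cytometry at day 4 measured editing.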

B1: BFP-to-GFP template RNA ; BFP reporter protospacer (ssRNA ; dsDNA)
RNA: GCCGAAGCACUGCACGCCGUGUUUUAGAGCUAGAAAUAGCAAGUUAAAAUAAGGCUAGUCCGUUAUCAACUUGAAAAAGUGGCACCGAGUCGGUGCACCCUGACGUACGGCGUGCAGUGCUU
DNA 1: GCCGAAGCACTGCACGCCGT
DNA 2: ACGGCGTGCAGTGCTTCGGC
On to B1, for which the activity is ≥ 100 % of reference.

The values are drawn from patent US20250092426, “CAS ENDONUCLEASES AND RELATED METHODS” (Flagship Pioneering Innovations VII, LLC, published 2025).
